Tests used:
Experiment in all cases: SPR
[1] = target: rat HER2 (rHER2) (rat, UniProt P06494 23-654)
[2] = target: human HER2 (hHER2) (human, UniProt P04626 23-652)
[3] = target: human EphA2 (hEphA2) (human, UniProt P29317 24-537)
Chain of human EphA2 (hEphA2) (P29317 24-537): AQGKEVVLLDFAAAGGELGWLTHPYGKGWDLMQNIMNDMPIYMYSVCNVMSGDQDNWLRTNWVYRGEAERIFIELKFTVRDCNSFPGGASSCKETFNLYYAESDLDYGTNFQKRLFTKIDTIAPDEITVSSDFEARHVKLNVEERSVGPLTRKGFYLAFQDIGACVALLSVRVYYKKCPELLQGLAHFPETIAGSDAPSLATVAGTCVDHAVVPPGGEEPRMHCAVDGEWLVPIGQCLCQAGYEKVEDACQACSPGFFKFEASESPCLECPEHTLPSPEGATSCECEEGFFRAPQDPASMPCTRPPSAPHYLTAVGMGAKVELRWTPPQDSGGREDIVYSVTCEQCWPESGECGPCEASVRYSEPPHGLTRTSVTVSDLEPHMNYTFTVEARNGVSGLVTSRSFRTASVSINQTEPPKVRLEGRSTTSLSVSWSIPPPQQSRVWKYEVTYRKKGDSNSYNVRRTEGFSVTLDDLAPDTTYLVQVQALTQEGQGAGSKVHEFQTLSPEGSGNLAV

Chain of rat HER2 (rHER2) (P06494 23-654): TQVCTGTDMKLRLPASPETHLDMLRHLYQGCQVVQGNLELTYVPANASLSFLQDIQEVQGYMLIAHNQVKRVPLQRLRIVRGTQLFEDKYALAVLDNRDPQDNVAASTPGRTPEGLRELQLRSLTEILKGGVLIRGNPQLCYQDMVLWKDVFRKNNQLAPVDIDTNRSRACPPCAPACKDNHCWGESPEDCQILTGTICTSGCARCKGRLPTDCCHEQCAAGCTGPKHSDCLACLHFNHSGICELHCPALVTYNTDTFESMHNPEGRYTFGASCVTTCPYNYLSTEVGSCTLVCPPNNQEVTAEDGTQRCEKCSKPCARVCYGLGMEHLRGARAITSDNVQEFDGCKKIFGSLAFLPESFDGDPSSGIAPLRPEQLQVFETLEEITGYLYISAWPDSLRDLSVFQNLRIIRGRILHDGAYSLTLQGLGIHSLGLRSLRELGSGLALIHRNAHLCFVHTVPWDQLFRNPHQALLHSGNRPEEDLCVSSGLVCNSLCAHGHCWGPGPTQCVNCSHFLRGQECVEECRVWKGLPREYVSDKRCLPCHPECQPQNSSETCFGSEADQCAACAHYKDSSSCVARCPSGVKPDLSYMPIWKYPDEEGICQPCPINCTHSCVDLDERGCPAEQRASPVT

B1: E1 (XNA)
RNA: GGGAGGACGAUGCGGUCCUGUCGUCUGUUCGUCCCCAGACGACUCGCCCGA
modifications: 2'-fluoro C and U (2'-OH A and G)
[1]
  Kd: 60.8 nM

B2: B1 (XNA)
RNA: GGGAGGACGAUGCGGUCUGUUGUGCUUGAUAUGCCCCAGACGACUCGCCCGA
modifications: 2'-fluoro C and U (2'-OH A and G)
[1]
  Kd: 85.2 nM
[2]
  binding result: no binding
[3]
  binding result: no binding

B3: C1 (XNA)
RNA: GGGAGGACGAUGCGGCUGUCUACCUUCUACUGCCGCAGACGACUCGCCCGA
modifications: 2'-fluoro C and U (2'-OH A and G)
[1]
  Kd: 45.8 nM
[2]
  binding result: no binding
[3]
  binding result: no binding
